Experimental data from EP4692114A1, “CALCITONIN ANALOGUE, AND DERIVATIVE THEREOF AND USE THEREOF” (Hangzhou Sciwind Biosciences Co., Ltd., priority 2023, dated 2024).
*1 amine or outer side, *2 acyl side, *3 side chain or, on linkers, in order; H or OH if unused. The star is where a group is joined. C20 diacid = O=C(O)CCCCCCCCCCCCCCCCCCC(=O)*; C18 diacid = O=C(O)CCCCCCCCCCCCCCCCC(=O)*; C16 diacid = O=C(O)CCCCCCCCCCCCCCC(=O)*; γGlu = O=C(O)[C@H](CCC(=O)[*:2])N[*:1]; AEEA = NCCOCCOCC(=O)O

T1: human amylin receptor (AMY3) on CHO-K1/Gal5/AMY3 cells (human, UniProt P30988 25-474; O60896 24-148)
T1 sequence (looked up) 1: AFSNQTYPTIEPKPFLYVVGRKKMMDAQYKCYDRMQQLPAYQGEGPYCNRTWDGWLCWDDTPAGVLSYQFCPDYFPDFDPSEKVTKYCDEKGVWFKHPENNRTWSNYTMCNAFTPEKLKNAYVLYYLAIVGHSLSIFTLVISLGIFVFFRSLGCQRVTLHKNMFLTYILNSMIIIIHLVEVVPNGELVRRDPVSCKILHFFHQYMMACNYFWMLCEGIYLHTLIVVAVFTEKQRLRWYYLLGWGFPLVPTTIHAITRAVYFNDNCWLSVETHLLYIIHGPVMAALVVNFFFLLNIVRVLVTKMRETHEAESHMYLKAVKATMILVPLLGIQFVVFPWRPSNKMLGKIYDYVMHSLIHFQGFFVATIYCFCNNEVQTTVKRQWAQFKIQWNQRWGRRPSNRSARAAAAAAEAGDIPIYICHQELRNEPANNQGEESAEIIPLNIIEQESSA
T1 sequence (looked up) 2: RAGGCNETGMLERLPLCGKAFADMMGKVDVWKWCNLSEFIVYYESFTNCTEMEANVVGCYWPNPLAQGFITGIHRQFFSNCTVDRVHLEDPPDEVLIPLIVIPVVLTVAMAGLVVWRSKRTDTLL

B1: calcitonin derivative M19 (peptide)
peptide: {C20 diacid-γGlu}-ASQLSTAVLGRLSQELHRLQDYPRTDVGAGSP-NH2
SMILES: CC(C)C[C@H](NC(=O)[C@H](CCCNC(=N)N)NC(=O)CNC(=O)[C@H](CC(C)C)NC(=O)[C@@H](NC(=O)[C@H](C)NC(=O)[C@@H](NC(=O)[C@H](CO)NC(=O)[C@H](CC(C)C)NC(=O)[C@H](CCC(N)=O)NC(=O)[C@H](CO)NC(=O)[C@H](C)NC(=O)CC[C@H](NC(=O)CCCCCCCCCCCCCCCCCCC(=O)O)C(=O)O)[C@@H](C)O)C(C)C)C(=O)N[C@@H](CO)C(=O)N[C@@H](CCC(N)=O)C(=O)N[C@@H](CCC(=O)O)C(=O)N[C@@H](CC(C)C)C(=O)N[C@@H](Cc1c[nH]cn1)C(=O)N[C@@H](CCCNC(=N)N)C(=O)N[C@@H](CC(C)C)C(=O)N[C@@H](CCC(N)=O)C(=O)N[C@@H](CC(=O)O)C(=O)N[C@@H](Cc1ccc(O)cc1)C(=O)N1CCC[C@H]1C(=O)N[C@@H](CCCNC(=N)N)C(=O)N[C@H](C(=O)N[C@@H](CC(=O)O)C(=O)N[C@H](C(=O)NCC(=O)N[C@@H](C)C(=O)NCC(=O)N[C@@H](CO)C(=O)N1CCC[C@H]1C(N)=O)C(C)C)[C@@H](C)O
B2: calcitonin derivative M41 (peptide)
peptide: {C20 diacid}-EASQLSTAVLGRLSDELHRLQDYPRTDVGSGSP-NH2
SMILES: CC(C)C[C@H](NC(=O)[C@H](CCCNC(=N)N)NC(=O)CNC(=O)[C@H](CC(C)C)NC(=O)[C@@H](NC(=O)[C@H](C)NC(=O)[C@@H](NC(=O)[C@H](CO)NC(=O)[C@H](CC(C)C)NC(=O)[C@H](CCC(N)=O)NC(=O)[C@H](CO)NC(=O)[C@H](C)NC(=O)[C@H](CCC(=O)O)NC(=O)CCCCCCCCCCCCCCCCCCC(=O)O)[C@@H](C)O)C(C)C)C(=O)N[C@@H](CO)C(=O)N[C@@H](CC(=O)O)C(=O)N[C@@H](CCC(=O)O)C(=O)N[C@@H](CC(C)C)C(=O)N[C@@H](Cc1c[nH]cn1)C(=O)N[C@@H](CCCNC(=N)N)C(=O)N[C@@H](CC(C)C)C(=O)N[C@@H](CCC(N)=O)C(=O)N[C@@H](CC(=O)O)C(=O)N[C@@H](Cc1ccc(O)cc1)C(=O)N1CCC[C@H]1C(=O)N[C@@H](CCCNC(=N)N)C(=O)N[C@H](C(=O)N[C@@H](CC(=O)O)C(=O)N[C@H](C(=O)NCC(=O)N[C@@H](CO)C(=O)NCC(=O)N[C@@H](CO)C(=O)N1CCC[C@H]1C(N)=O)C(C)C)[C@@H](C)O
B3: calcitonin derivative M24 (peptide)
peptide: {C18 diacid}-EASQLSTAVLGRLSQELHRLQDYPRTDVGSGSP-NH2
SMILES: CC(C)C[C@H](NC(=O)[C@H](CCCNC(=N)N)NC(=O)CNC(=O)[C@H](CC(C)C)NC(=O)[C@@H](NC(=O)[C@H](C)NC(=O)[C@@H](NC(=O)[C@H](CO)NC(=O)[C@H](CC(C)C)NC(=O)[C@H](CCC(N)=O)NC(=O)[C@H](CO)NC(=O)[C@H](C)NC(=O)[C@H](CCC(=O)O)NC(=O)CCCCCCCCCCCCCCCCC(=O)O)[C@@H](C)O)C(C)C)C(=O)N[C@@H](CO)C(=O)N[C@@H](CCC(N)=O)C(=O)N[C@@H](CCC(=O)O)C(=O)N[C@@H](CC(C)C)C(=O)N[C@@H](Cc1c[nH]cn1)C(=O)N[C@@H](CCCNC(=N)N)C(=O)N[C@@H](CC(C)C)C(=O)N[C@@H](CCC(N)=O)C(=O)N[C@@H](CC(=O)O)C(=O)N[C@@H](Cc1ccc(O)cc1)C(=O)N1CCC[C@H]1C(=O)N[C@@H](CCCNC(=N)N)C(=O)N[C@H](C(=O)N[C@@H](CC(=O)O)C(=O)N[C@H](C(=O)NCC(=O)N[C@@H](CO)C(=O)NCC(=O)N[C@@H](CO)C(=O)N1CCC[C@H]1C(N)=O)C(C)C)[C@@H](C)O
B4: calcitonin derivative M9 (peptide)
peptide: {C20 diacid-γGlu}-ASQLSTAVLGRLSEELHRLQDYPRTDVGSGSP-NH2
SMILES: CC(C)C[C@H](NC(=O)[C@H](CCCNC(=N)N)NC(=O)CNC(=O)[C@H](CC(C)C)NC(=O)[C@@H](NC(=O)[C@H](C)NC(=O)[C@@H](NC(=O)[C@H](CO)NC(=O)[C@H](CC(C)C)NC(=O)[C@H](CCC(N)=O)NC(=O)[C@H](CO)NC(=O)[C@H](C)NC(=O)CC[C@H](NC(=O)CCCCCCCCCCCCCCCCCCC(=O)O)C(=O)O)[C@@H](C)O)C(C)C)C(=O)N[C@@H](CO)C(=O)N[C@@H](CCC(=O)O)C(=O)N[C@@H](CCC(=O)O)C(=O)N[C@@H](CC(C)C)C(=O)N[C@@H](Cc1c[nH]cn1)C(=O)N[C@@H](CCCNC(=N)N)C(=O)N[C@@H](CC(C)C)C(=O)N[C@@H](CCC(N)=O)C(=O)N[C@@H](CC(=O)O)C(=O)N[C@@H](Cc1ccc(O)cc1)C(=O)N1CCC[C@H]1C(=O)N[C@@H](CCCNC(=N)N)C(=O)N[C@H](C(=O)N[C@@H](CC(=O)O)C(=O)N[C@H](C(=O)NCC(=O)N[C@@H](CO)C(=O)NCC(=O)N[C@@H](CO)C(=O)N1CCC[C@H]1C(N)=O)C(C)C)[C@@H](C)O
B5: calcitonin derivative M40 (peptide)
peptide: {C16 diacid-γGlu}-ASQLSTAVLGRLSDELHRLQDYPRTDVGSGSP-NH2
SMILES: CC(C)C[C@H](NC(=O)[C@H](CCCNC(=N)N)NC(=O)CNC(=O)[C@H](CC(C)C)NC(=O)[C@@H](NC(=O)[C@H](C)NC(=O)[C@@H](NC(=O)[C@H](CO)NC(=O)[C@H](CC(C)C)NC(=O)[C@H](CCC(N)=O)NC(=O)[C@H](CO)NC(=O)[C@H](C)NC(=O)CC[C@H](NC(=O)CCCCCCCCCCCCCCC(=O)O)C(=O)O)[C@@H](C)O)C(C)C)C(=O)N[C@@H](CO)C(=O)N[C@@H](CC(=O)O)C(=O)N[C@@H](CCC(=O)O)C(=O)N[C@@H](CC(C)C)C(=O)N[C@@H](Cc1c[nH]cn1)C(=O)N[C@@H](CCCNC(=N)N)C(=O)N[C@@H](CC(C)C)C(=O)N[C@@H](CCC(N)=O)C(=O)N[C@@H](CC(=O)O)C(=O)N[C@@H](Cc1ccc(O)cc1)C(=O)N1CCC[C@H]1C(=O)N[C@@H](CCCNC(=N)N)C(=O)N[C@H](C(=O)N[C@@H](CC(=O)O)C(=O)N[C@H](C(=O)NCC(=O)N[C@@H](CO)C(=O)NCC(=O)N[C@@H](CO)C(=O)N1CCC[C@H]1C(N)=O)C(C)C)[C@@H](C)O
B6: calcitonin derivative M57 (peptide)
peptide: {C20 diacid-γGlu-AEEA-AEEA}-ASQLSTAVLGRLSEELHRLQDYPRTDVGSGSP-NH2
SMILES: CC(C)C[C@H](NC(=O)[C@H](CCCNC(=N)N)NC(=O)CNC(=O)[C@H](CC(C)C)NC(=O)[C@@H](NC(=O)[C@H](C)NC(=O)[C@@H](NC(=O)[C@H](CO)NC(=O)[C@H](CC(C)C)NC(=O)[C@H](CCC(N)=O)NC(=O)[C@H](CO)NC(=O)[C@H](C)NC(=O)COCCOCCNC(=O)COCCOCCNC(=O)CC[C@H](NC(=O)CCCCCCCCCCCCCCCCCCC(=O)O)C(=O)O)[C@@H](C)O)C(C)C)C(=O)N[C@@H](CO)C(=O)N[C@@H](CCC(=O)O)C(=O)N[C@@H](CCC(=O)O)C(=O)N[C@@H](CC(C)C)C(=O)N[C@@H](Cc1c[nH]cn1)C(=O)N[C@@H](CCCNC(=N)N)C(=O)N[C@@H](CC(C)C)C(=O)N[C@@H](CCC(N)=O)C(=O)N[C@@H](CC(=O)O)C(=O)N[C@@H](Cc1ccc(O)cc1)C(=O)N1CCC[C@H]1C(=O)N[C@@H](CCCNC(=N)N)C(=O)N[C@H](C(=O)N[C@@H](CC(=O)O)C(=O)N[C@H](C(=O)NCC(=O)N[C@@H](CO)C(=O)NCC(=O)N[C@@H](CO)C(=O)N1CCC[C@H]1C(N)=O)C(C)C)[C@@H](C)O
B7: calcitonin derivative M23 (peptide)
peptide: {C18 diacid}-DASQLSTAVLGRLSQELHRLQDYPRTDVGSGSP-NH2
SMILES: CC(C)C[C@H](NC(=O)[C@H](CCCNC(=N)N)NC(=O)CNC(=O)[C@H](CC(C)C)NC(=O)[C@@H](NC(=O)[C@H](C)NC(=O)[C@@H](NC(=O)[C@H](CO)NC(=O)[C@H](CC(C)C)NC(=O)[C@H](CCC(N)=O)NC(=O)[C@H](CO)NC(=O)[C@H](C)NC(=O)[C@H](CC(=O)O)NC(=O)CCCCCCCCCCCCCCCCC(=O)O)[C@@H](C)O)C(C)C)C(=O)N[C@@H](CO)C(=O)N[C@@H](CCC(N)=O)C(=O)N[C@@H](CCC(=O)O)C(=O)N[C@@H](CC(C)C)C(=O)N[C@@H](Cc1c[nH]cn1)C(=O)N[C@@H](CCCNC(=N)N)C(=O)N[C@@H](CC(C)C)C(=O)N[C@@H](CCC(N)=O)C(=O)N[C@@H](CC(=O)O)C(=O)N[C@@H](Cc1ccc(O)cc1)C(=O)N1CCC[C@H]1C(=O)N[C@@H](CCCNC(=N)N)C(=O)N[C@H](C(=O)N[C@@H](CC(=O)O)C(=O)N[C@H](C(=O)NCC(=O)N[C@@H](CO)C(=O)NCC(=O)N[C@@H](CO)C(=O)N1CCC[C@H]1C(N)=O)C(C)C)[C@@H](C)O

target: T1, human amylin receptor (AMY3) on …; assay: cell-based or functional assay

| EC50/nM, CRE-luciferase in amylin receptor/CRE-luc CHO cells [nM] | Binder |
| --- | --- |
| 0.016 | B1 |
| 0.069 | B2 |
| 0.016 | B3 |
| 0.017 | B4 |
| 0.002 | B5 |
| 0.017 | B6 |
| 0.01 | B7 |
